Assays:
[1] = target: BG505 NFL trimer (Wt, unfixed) (HIV-1, subtype A, strain BG505); test: native gel or EMSA
VRC01 (human) = test: BLI
[2] = target: JRFL NFL trimer (Wt, unfixed) (HIV-1, subtype B, strain JRFL); test: native gel or EMSA

VRC01 (human), sequence (light, as listed by the source, chain 2 of 2, other chains not shown): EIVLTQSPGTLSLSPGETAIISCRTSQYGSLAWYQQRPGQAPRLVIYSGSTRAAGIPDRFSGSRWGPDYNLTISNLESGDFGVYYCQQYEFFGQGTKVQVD

Substance	stoichiometry N [1]	relative binding (% of the day 0 response) after 7 days at 37°C in PBS (VRC01 (human)) [%]	stoichiometry N [2]
BG505 NFL trimer (Wt, unfixed) (domain or fragment)	3	90	
JRFL NFL trimer (Wt, unfixed) (domain or fragment)			3

From article PMC4972253
